Like-named read-outs stand apart in the source and are kept apart here.
Substance	degradation_or_half_life (other: succinylation at K83)	enzymatic_activity (other: succinylation at K83)	other (other: succinylation at K83)	enzymatic_activity (phosphorylation at S293)
PDHA1: K83R	no change	decreases	increases	
PDHA1: K83R S293A (compared with K83R)				increases
